The values below are quoted from earlier work in PMC4698235.

One may read the Kd as the constant that tells how readily two partners part at equilibrium.

The target in one series is insulin (Homo sapiens) (UniProt P01308).
In another series the target is IDE (Homo sapiens) (UniProt P14735).

Sequence of UniProt P01308 (P01308 90-110): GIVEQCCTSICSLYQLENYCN

Regarding IDE (from UniProt P14735), the Kd with insulin (Homo sapiens) and with IDE (Homo sapiens) was 10 nM throughout.
